Reference: article doi:10.1101/2023.08.11.553045 (bioRxiv, 2023)
Where no end group is shown, it is not given here.

B1: STING cytosolic domain (hSTING CTD lacking CTT3, aa 137-366) (domain or fragment)
chain: KGLAPAEISAVCEKGNFNVAHGLAWSYYIGYLRLILPELQARIRTYNQHYNNLLRGAVSQRLYILLPLDCGVPDNLSMADPNIRFLDKLPQQTGDHAGIKDRVYSNSIYELLENGQRAGTCVLEYATPLQTLFAMSQYSQAGFSREDRLEQAKLFCRTLEDILADAPESQNNCRLIAYQEPADDSSFSLSQEVLRHLRQEEKEEVTVGSLKTSAVPSTSTMSQEPELLIS

Experiments:
[1] = target: STING cytosolic domain (hSTING CTD lacking CTT3, aa 137-366) (human) (UniProt Q86WV6); assay: MST
SEC = target: the molecule itself; assay: SEC
STING-R284S CTD = STING-R284S CTD (human, UniProt Q86WV6 137-366, R284S); assay: NMR titration
[2] = target: B1; assay: NMR titration
[3] = target: B1; assay: MST

CTT8 peptide (MFEKPLPL)
fold enhancement of affinity over CTT7 [1]: 2.7 fold

B1
binding result (SEC): binds

MEKPLPL (also: 15N isotopically labelled amino acids) [15N-labelled CTT7]
binding result (STING-R284S CTD): binds
binding result [2]: binds

MEKPLPL [CTT7 peptide (unlabelled)]
Kd [3]: 10.7 µM
